Our source for the Kd values is publication PMC5999314.

The test deals with dengue poly-immunoglobulin G scaffold (D-PIGS), unfractionated, from ∆XF N. benthamiana. As to the kind of experiment: SPR; Biacore X100, affinity layout: 200 RU of D-PIGS (unfractionated) or hIgG1 captured on immobilised protein A (CM5 chip); CD16a or CD64 injected as analyte, 12.5 to 800 nM, contact 60 s, 50 uL/min, dissociation 200 s; two-state model for CD16a, 1:1 model for CD64. For orientation: Surface plasmon resonance follows binding to a sensor surface in real time, without labels.

pKd: −log10 of the molar value.

One may read the pKd as the negative decadic logarithm of the Kd, by convention in mol/L. “recombinant human CD16a (from UniProt P08637 17-208) (receptor)”: the pKd was 7.61.
